No end group written: not given here.
Experiments:
[1] = molecular target: 7E11-C5 monoclonal antibody; assay: competitive ELISA, peptide 1.75-1130 nM pre-incubated with 7E11-C5 at 30 ng/ml (0.2 nM), LNCaP extract on plate
[2] = molecular target: 7E11-C5 monoclonal antibody; assay: competitive ELISA, LNCaP extract on plate

IC50 [1]: 160 nM | molar ratio of peptide to monovalent binding site on the antibody at the IC50 [2]: 400
Binder: LYANPGMYSRLHSPA-NH2 [peptide SEQ ID NO 31 (amide form)]

From patent publication US5747334
